{
  "source": "patent US20250339531A1",
  "about": "“DUX4 POLYPEPTIDES AND NUCLEIC ACIDS FOR TREATING INFLAMMATORY AND AUTOIMMUNE CONDITIONS” (Fred Hutchinson Cancer Center, priority 2021, published 2025)",
  "experiment_in_all_cases": "anti-FLAG co-IP LC-MS, exp 4, +Dox +IFNG",
  "key": {"[1]": {"target": "40S ribosomal protein S3a (Homo sapiens) (UniProt P61247)"}, "[2]": {"target": "Junctional sarcoplasmic reticulum protein 1 (Homo sapiens) (UniProt Q96MG2)"}, "[3]": {"target": "60S ribosomal protein L8 (Homo sapiens) (UniProt P62917)"}, "[4]": {"target": "Dolichyl-diphosphooligosaccharide--protein glycosyltransferase subunit 1 (Homo sapiens) (UniProt P04843)"}, "[5]": {"target": "Galectin-7 (Homo sapiens) (UniProt P47929)"}, "[6]": {"target": "WD repeat-containing protein 1 (Homo sapiens) (UniProt O75083)"}, "[7]": {"target": "Capping protein (Actin filament) muscle Z-line, beta, isoform CRA_d (Homo sapiens) (UniProt B1AK88)"}, "[8]": {"target": "Tubulin beta-6 chain (Homo sapiens) (UniProt Q9BUF5)"}, "[9]": {"target": "40S ribosomal protein S4, X isoform (Homo sapiens) (UniProt P62701)"}, "[10]": {"target": "Heat shock 70 kDa protein 1B (Homo sapiens) (UniProt P0DMV9)"}, "[11]": {"target": "Eukaryotic initiation factor 4A-II (Homo sapiens) (UniProt Q14240)"}, "[12]": {"target": "Phosphate carrier protein, mitochondrial (Homo sapiens) (UniProt Q00325)"}, "[13]": {"target": "4F2 cell-surface antigen heavy chain (Homo sapiens) (UniProt P08195)"}, "[14]": {"target": "40S ribosomal protein S8 (Homo sapiens) (UniProt P62241)"}, "[15]": {"target": "Tubulin beta-2A chain (Homo sapiens) (UniProt Q13885)", "sequence (Q13885 whole entry)": "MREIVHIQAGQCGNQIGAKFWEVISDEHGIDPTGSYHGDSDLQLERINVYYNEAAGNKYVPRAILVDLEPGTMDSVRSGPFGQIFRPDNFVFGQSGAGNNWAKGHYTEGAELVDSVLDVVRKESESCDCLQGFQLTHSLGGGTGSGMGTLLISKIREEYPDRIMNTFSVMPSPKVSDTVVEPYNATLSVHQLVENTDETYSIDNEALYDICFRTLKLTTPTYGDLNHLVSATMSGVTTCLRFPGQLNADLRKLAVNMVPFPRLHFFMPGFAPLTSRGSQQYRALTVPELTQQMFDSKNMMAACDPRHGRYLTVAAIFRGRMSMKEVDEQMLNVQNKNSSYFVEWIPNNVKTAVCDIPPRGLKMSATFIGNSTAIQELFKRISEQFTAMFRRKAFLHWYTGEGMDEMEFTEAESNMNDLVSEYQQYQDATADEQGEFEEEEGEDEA"}, "[16]": {"target": "Stress-70 protein, mitochondrial (Homo sapiens) (UniProt P38646)"}, "[17]": {"target": "Src substrate cortactin (Homo sapiens) (UniProt Q14247)"}, "[18]": {"target": "Importin subunit alpha-5 (Homo sapiens) (UniProt P52294)"}, "[19]": {"target": "Probable ubiquitin carboxyl-terminal hydrolase FAF-X (Homo sapiens) (UniProt Q93008)"}, "[20]": {"target": "Endoplasmic reticulum chaperone BiP (Homo sapiens) (UniProt P11021)"}, "[21]": {"target": "Prolyl 4-hydroxylase subunit alpha-1 (Homo sapiens) (UniProt P13674)"}, "[22]": {"target": "Serine/threonine-protein kinase 38 (Homo sapiens) (UniProt Q15208)"}, "[23]": {"target": "Dynactin subunit 1 (Homo sapiens) (UniProt Q14203)"}, "[24]": {"target": "Spectrin beta chain (Homo sapiens) (UniProt Q01082)"}, "[25]": {"target": "Alpha-actinin-1 (Homo sapiens) (UniProt P12814)"}, "[26]": {"target": "Transcription intermediary factor 1-beta (Homo sapiens) (UniProt Q13263)"}, "[27]": {"target": "Tubulin alpha chain (Homo sapiens) (UniProt F5H5D3)"}, "[28]": {"target": "Ubiquitin carboxyl-terminal hydrolase 11 (Homo sapiens) (UniProt P51784)"}, "[29]": {"target": "Filamin-C (Homo sapiens) (UniProt Q14315)"}, "[30]": {"target": "Prelamin-A/C (Homo sapiens) (UniProt P02545)"}, "[31]": {"target": "Plectin (Homo sapiens) (UniProt Q15149)", "sequence (Q15149 whole entry)": "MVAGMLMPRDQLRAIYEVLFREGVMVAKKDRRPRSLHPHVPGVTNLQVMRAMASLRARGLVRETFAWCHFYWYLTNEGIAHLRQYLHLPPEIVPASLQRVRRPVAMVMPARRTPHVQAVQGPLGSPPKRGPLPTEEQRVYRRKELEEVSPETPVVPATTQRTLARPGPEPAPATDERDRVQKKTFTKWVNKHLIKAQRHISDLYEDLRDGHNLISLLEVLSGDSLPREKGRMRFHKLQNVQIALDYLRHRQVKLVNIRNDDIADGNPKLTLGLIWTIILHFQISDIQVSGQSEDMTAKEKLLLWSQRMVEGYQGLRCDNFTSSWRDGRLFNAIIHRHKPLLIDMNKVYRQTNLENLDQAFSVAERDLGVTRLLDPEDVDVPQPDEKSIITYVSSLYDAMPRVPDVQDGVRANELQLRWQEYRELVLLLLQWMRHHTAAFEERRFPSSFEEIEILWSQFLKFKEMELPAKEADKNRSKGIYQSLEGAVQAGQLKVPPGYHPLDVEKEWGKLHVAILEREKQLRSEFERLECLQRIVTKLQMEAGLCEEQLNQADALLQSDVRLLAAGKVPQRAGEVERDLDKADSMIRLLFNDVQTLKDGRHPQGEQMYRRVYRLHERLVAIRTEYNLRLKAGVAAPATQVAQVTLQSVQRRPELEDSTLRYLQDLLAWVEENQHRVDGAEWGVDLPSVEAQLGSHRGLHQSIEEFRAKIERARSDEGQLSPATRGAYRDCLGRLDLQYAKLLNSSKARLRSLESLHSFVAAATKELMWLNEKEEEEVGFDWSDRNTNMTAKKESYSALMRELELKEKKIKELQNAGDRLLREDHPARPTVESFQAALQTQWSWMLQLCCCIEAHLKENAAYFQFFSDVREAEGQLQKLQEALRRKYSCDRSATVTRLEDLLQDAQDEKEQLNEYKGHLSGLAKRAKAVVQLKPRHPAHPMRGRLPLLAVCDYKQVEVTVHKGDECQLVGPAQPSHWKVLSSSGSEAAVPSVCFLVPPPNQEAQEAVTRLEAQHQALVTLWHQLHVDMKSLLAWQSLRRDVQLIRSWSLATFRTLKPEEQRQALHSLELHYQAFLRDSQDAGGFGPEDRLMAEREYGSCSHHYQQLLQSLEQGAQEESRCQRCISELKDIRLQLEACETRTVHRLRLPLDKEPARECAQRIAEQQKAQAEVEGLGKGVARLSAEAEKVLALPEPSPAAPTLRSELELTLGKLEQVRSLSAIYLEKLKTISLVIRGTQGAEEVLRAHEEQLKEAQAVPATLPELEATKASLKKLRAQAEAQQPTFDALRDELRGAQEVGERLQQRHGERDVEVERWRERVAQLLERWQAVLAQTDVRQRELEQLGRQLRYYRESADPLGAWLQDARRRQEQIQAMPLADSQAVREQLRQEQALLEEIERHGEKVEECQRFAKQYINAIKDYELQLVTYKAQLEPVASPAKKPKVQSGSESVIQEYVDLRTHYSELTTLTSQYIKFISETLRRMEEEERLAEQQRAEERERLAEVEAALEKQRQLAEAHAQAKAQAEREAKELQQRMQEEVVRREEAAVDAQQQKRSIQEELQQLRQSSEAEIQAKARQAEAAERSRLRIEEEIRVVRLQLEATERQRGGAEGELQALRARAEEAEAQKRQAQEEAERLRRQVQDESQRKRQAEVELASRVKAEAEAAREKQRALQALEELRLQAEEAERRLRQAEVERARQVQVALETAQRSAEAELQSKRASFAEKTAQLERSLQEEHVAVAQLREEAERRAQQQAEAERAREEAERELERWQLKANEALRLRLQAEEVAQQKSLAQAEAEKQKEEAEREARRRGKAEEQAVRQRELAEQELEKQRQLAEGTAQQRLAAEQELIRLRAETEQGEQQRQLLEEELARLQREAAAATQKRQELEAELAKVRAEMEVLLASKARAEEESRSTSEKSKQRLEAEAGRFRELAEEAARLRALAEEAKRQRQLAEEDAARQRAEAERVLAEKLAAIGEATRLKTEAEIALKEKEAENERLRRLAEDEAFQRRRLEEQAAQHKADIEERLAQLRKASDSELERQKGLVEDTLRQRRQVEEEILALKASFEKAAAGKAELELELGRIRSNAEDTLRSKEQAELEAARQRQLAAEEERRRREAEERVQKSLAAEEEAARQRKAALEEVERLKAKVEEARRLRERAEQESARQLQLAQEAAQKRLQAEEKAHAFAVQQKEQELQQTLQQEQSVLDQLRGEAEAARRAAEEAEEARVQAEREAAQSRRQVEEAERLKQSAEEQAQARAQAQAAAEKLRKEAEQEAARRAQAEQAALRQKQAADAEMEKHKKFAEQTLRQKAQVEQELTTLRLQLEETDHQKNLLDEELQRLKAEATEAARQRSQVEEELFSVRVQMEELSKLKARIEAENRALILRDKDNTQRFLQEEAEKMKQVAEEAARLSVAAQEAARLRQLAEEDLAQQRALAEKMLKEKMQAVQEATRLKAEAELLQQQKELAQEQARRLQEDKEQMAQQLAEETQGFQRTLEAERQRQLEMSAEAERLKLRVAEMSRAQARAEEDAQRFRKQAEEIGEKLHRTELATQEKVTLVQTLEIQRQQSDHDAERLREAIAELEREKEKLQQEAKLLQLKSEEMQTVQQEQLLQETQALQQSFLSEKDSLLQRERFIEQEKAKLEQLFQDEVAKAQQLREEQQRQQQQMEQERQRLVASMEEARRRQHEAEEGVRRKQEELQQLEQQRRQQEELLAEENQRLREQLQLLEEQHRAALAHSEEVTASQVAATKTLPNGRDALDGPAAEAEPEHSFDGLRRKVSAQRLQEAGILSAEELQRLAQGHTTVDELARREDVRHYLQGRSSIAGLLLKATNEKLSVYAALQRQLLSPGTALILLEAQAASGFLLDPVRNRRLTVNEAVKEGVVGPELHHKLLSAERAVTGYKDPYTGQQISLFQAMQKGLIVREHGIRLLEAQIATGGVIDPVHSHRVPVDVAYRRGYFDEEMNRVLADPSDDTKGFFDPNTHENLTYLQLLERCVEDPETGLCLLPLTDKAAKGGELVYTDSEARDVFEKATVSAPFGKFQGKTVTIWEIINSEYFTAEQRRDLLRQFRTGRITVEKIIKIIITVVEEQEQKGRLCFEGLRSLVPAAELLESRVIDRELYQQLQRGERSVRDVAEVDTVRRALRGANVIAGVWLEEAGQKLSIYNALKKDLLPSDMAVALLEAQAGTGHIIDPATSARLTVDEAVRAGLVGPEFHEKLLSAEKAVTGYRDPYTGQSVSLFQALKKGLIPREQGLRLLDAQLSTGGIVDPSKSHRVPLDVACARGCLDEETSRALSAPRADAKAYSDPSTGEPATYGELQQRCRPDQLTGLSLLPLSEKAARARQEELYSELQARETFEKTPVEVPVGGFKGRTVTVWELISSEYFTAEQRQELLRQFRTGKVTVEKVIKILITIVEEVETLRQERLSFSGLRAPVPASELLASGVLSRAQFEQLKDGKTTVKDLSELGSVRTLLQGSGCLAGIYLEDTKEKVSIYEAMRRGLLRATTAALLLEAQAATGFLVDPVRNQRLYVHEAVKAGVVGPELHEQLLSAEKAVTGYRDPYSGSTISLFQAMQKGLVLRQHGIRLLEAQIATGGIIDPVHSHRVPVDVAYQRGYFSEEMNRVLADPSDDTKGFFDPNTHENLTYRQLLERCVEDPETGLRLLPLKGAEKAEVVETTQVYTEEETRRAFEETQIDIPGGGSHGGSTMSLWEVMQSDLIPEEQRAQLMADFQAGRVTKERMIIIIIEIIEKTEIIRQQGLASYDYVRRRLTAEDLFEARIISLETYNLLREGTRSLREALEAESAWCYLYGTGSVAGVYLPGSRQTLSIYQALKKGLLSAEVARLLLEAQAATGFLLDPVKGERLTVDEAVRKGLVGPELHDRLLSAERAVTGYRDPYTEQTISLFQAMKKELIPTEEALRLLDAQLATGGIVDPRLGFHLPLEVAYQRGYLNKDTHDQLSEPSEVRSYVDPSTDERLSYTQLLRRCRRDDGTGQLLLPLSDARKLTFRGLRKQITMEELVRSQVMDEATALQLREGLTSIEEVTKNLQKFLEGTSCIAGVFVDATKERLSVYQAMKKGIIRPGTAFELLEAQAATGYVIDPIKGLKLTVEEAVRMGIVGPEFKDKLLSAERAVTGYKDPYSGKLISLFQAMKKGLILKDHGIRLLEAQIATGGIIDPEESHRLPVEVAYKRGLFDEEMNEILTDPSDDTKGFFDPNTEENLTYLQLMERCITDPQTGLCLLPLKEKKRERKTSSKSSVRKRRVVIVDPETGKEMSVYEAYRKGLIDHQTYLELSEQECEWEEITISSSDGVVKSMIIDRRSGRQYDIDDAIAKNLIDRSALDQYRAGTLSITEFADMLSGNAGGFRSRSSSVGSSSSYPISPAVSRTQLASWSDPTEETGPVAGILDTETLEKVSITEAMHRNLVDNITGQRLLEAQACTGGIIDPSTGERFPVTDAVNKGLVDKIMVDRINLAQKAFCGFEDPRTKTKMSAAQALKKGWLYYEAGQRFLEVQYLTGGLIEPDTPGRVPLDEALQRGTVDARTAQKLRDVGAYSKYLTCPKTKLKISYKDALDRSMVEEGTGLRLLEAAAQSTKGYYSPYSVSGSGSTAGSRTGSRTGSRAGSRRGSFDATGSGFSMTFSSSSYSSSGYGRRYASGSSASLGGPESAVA"}, "[32]": {"target": "60S ribosomal protein L5 (Homo sapiens) (UniProt P46777)"}, "[33]": {"target": "Alpha-enolase (Homo sapiens) (UniProt P06733)"}, "[34]": {"target": "Transportin-1 (Homo sapiens) (UniProt Q92973)"}, "[35]": {"target": "Insulin-like growth factor 2 mRNA-binding protein 2 (Homo sapiens) (UniProt F8W930)"}, "[36]": {"target": "Vimentin (Homo sapiens) (UniProt P08670)"}, "[37]": {"target": "Endonuclease domain-containing 1 protein (Homo sapiens) (UniProt O94919)"}},
  "data": [
    {"substance": "i3XFLAG-NLS-CTDaa154-424", "values": [
      {"measurement": "PSMs", "setting": "[1]", "value": 2, "unit": "PSMs"},
      {"measurement": "PSMs", "setting": "[2]", "value": 3, "unit": "PSMs"},
      {"measurement": "PSMs", "setting": "[3]", "value": 2, "unit": "PSMs"},
      {"measurement": "PSMs", "setting": "[4]", "value": 2, "unit": "PSMs"},
      {"measurement": "PSMs", "setting": "[5]", "value": 6, "unit": "PSMs"},
      {"measurement": "PSMs", "setting": "[6]", "value": 11, "unit": "PSMs"},
      {"measurement": "PSMs", "setting": "[7]", "value": 11, "unit": "PSMs"},
      {"measurement": "PSMs", "setting": "[8]", "value": 46, "unit": "PSMs"},
      {"measurement": "PSMs", "setting": "[9]", "value": 3, "unit": "PSMs"},
      {"measurement": "PSMs", "setting": "[10]", "value": 29, "unit": "PSMs"},
      {"measurement": "PSMs", "setting": "[11]", "value": 6, "unit": "PSMs"},
      {"measurement": "PSMs", "setting": "[12]", "value": 2, "unit": "PSMs"},
      {"measurement": "PSMs", "setting": "[13]", "value": 2, "unit": "PSMs"},
      {"measurement": "PSMs", "setting": "[14]", "value": 2, "unit": "PSMs"},
      {"measurement": "PSMs", "setting": "[15]", "value": 99, "unit": "PSMs"},
      {"measurement": "PSMs", "setting": "[16]", "value": 7, "unit": "PSMs"},
      {"measurement": "PSMs", "setting": "[17]", "value": 5, "unit": "PSMs"},
      {"measurement": "PSMs", "setting": "[18]", "value": 2, "unit": "PSMs"},
      {"measurement": "PSMs", "setting": "[19]", "value": 3, "unit": "PSMs"},
      {"measurement": "PSMs", "setting": "[20]", "value": 44, "unit": "PSMs"},
      {"measurement": "PSMs", "setting": "[21]", "value": 9, "unit": "PSMs"},
      {"measurement": "PSMs", "setting": "[22]", "value": 6, "unit": "PSMs"},
      {"measurement": "PSMs", "setting": "[23]", "value": 2, "unit": "PSMs"},
      {"measurement": "PSMs", "setting": "[24]", "value": 3, "unit": "PSMs"},
      {"measurement": "PSMs", "setting": "[25]", "value": 34, "unit": "PSMs"},
      {"measurement": "PSMs", "setting": "[26]", "value": 2, "unit": "PSMs"},
      {"measurement": "PSMs", "setting": "[27]", "value": 25, "unit": "PSMs"},
      {"measurement": "PSMs", "setting": "[28]", "value": 2, "unit": "PSMs"},
      {"measurement": "PSMs", "setting": "[29]", "value": 12, "unit": "PSMs"},
      {"measurement": "PSMs", "setting": "[30]", "value": 6, "unit": "PSMs"},
      {"measurement": "PSMs", "setting": "[31]", "value": 7, "unit": "PSMs"},
      {"measurement": "PSMs", "setting": "[32]", "value": 19, "unit": "PSMs"},
      {"measurement": "PSMs", "setting": "[33]", "value": 2, "unit": "PSMs"},
      {"measurement": "PSMs", "setting": "[34]", "value": 3, "unit": "PSMs"},
      {"measurement": "PSMs", "setting": "[35]", "value": 2, "unit": "PSMs"},
      {"measurement": "PSMs", "setting": "[36]", "value": 55, "unit": "PSMs"},
      {"measurement": "PSMs", "setting": "[37]", "value": 2, "unit": "PSMs"}
    ]}
  ]
}
